Measurements published in patent publication US20220204643A1 (published 2022).

Assays:
[1] = biological target: T1, methionyl-tRNA synthetase 1 (human, UniProt P56192 1-900)
T1 construct: HuProt array protein, full-length recombinant from yeast; also called MARS
T1 sequence: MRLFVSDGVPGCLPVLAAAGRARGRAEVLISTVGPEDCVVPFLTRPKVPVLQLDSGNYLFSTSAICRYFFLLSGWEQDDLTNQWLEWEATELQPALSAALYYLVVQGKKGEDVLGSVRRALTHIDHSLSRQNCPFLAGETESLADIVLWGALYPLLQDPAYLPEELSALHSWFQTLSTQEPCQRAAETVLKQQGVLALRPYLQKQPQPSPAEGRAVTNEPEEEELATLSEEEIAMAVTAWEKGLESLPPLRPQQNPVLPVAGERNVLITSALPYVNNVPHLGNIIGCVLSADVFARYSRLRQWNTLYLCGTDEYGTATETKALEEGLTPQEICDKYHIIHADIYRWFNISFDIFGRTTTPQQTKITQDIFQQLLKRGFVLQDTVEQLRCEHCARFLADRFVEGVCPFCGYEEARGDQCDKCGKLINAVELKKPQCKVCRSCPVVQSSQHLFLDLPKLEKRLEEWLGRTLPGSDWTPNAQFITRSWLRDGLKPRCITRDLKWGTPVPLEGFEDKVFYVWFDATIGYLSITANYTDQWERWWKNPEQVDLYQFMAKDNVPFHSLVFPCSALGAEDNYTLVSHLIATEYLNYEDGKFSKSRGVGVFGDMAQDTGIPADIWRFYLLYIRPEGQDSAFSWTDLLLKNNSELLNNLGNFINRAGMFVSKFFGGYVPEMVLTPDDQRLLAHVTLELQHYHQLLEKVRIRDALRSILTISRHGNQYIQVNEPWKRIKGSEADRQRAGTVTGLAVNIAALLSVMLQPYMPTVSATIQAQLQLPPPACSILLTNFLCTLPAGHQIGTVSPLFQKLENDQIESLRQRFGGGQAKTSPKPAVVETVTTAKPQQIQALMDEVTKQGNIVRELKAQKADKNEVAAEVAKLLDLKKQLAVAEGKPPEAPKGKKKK

[2] = biological target: T2, serpin family B member 6, transcript variant 2 (human, UniProt P35237 1-376)
T2 construct: HuProt array protein, full-length recombinant from yeast; also called SERPINB6
T2 sequence: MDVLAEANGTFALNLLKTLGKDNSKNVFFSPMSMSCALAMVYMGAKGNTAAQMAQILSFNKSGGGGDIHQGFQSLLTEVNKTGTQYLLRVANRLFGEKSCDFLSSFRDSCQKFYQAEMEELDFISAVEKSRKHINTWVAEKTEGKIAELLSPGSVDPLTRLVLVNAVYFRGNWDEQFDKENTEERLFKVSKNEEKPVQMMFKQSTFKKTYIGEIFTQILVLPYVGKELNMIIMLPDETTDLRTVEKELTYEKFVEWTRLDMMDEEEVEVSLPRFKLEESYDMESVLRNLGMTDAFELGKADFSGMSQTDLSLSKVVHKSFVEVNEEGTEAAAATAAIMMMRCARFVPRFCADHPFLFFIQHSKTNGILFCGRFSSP

[3] = biological target: T3, rhophilin associated tail protein 1 like, transcript variant 2 (human, UniProt Q96C74 1-230)
T3 construct: HuProt array protein, full-length recombinant from yeast; also called ROPN1L
T3 sequence: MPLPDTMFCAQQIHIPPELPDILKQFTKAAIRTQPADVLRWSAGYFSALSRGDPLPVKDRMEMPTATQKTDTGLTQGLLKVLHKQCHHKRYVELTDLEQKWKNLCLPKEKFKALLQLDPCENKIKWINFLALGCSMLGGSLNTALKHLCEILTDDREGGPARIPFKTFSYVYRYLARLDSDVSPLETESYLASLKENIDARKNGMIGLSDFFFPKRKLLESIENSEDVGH

[4] = biological target: T4, Dpy-30 histone methyltransferase complex regulatory subunit (human, UniProt Q9C005 1-99)
T4 construct: HuProt array protein, full-length recombinant from yeast
T4 sequence (Q9C005 whole entry, one chain of several): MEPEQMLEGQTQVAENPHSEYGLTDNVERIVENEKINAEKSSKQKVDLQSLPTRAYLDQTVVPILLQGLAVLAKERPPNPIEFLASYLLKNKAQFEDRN

BTB domain containing 8 = biological target: T5, BTB domain containing 8 (human, UniProt Q5XKL5 1-374, limits assumed)
T5 construct: HuProt array protein, full-length recombinant from yeast; also called BTBD8
T5 sequence (Q5XKL5 other isoform, or with tags, fused parts or gaps limits assumed): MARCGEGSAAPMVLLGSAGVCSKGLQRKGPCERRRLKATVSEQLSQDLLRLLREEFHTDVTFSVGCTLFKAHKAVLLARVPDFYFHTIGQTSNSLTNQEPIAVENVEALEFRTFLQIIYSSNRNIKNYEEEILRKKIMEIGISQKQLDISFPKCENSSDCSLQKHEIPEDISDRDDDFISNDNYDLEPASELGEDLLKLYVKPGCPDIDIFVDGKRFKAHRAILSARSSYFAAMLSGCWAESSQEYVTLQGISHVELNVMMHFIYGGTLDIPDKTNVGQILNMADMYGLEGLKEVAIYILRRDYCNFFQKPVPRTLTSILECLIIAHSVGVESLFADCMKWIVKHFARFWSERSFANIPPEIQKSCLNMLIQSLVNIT

[5] = biological target: T6, Jupiter microtubule associated homolog 2 (human, UniProt Q9H910 1-190)
T6 construct: HuProt array protein, full-length recombinant from yeast; also called HN1L
T6 sequence: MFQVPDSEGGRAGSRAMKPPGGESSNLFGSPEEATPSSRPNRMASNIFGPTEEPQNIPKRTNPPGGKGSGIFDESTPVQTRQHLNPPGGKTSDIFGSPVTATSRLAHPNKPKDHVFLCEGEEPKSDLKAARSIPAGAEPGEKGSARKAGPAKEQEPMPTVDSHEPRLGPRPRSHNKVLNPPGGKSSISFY

[6] = biological target: T7, microtubule associated protein RP/EB family member 2, transcript variant 1 (human, UniProt Q15555 1-327)
T7 construct: also called MAPRE2
T7 sequence (Q15555 whole entry, change not shown): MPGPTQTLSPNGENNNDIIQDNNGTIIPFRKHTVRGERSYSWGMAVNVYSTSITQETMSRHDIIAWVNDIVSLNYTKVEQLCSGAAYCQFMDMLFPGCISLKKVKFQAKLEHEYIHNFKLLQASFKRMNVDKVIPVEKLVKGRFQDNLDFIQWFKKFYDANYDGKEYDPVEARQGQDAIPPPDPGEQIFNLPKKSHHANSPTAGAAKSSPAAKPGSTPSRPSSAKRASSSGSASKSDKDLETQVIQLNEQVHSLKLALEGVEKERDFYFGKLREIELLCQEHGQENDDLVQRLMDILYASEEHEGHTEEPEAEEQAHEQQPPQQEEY

[7] = biological target: T8, interleukin 27 receptor subunit alpha (human, UniProt Q6UWB1 33-636, limits assumed)
T8 construct: also called IL27RA
T8 sequence: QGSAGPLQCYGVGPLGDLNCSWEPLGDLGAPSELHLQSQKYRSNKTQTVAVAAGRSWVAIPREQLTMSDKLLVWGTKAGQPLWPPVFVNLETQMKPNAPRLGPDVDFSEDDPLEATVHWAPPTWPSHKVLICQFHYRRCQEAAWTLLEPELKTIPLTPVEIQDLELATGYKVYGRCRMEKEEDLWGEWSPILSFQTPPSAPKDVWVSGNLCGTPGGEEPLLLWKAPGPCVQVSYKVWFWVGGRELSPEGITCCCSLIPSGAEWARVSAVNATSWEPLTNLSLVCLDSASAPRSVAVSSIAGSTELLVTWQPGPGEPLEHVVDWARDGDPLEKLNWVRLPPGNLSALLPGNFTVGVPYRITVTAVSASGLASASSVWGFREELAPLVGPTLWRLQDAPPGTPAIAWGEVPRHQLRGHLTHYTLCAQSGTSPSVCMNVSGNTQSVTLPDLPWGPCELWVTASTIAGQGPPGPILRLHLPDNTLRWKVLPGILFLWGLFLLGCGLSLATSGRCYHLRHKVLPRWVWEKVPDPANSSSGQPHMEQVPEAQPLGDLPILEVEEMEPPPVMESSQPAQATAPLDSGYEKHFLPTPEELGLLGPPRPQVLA

Deoxyhypusine synthase = biological target: T9, Deoxyhypusine synthase (human, UniProt P49366 1-369)
T9 construct: also called DHPS
T9 sequence: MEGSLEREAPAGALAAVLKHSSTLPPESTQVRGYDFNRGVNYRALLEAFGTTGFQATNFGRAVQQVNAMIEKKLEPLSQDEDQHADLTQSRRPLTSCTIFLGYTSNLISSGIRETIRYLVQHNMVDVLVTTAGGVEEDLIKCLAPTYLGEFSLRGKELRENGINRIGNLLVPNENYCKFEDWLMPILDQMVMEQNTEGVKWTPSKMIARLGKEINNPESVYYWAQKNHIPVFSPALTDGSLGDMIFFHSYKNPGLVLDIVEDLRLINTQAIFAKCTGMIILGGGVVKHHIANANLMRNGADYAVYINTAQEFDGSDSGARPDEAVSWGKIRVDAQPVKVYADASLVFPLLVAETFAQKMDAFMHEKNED

[8] = biological target: T10, HEAT repeat containing 3, transcript variant 1 (human, UniProt Q7Z4Q2 1-680)
T10 construct: also called HEATR3
T10 sequence: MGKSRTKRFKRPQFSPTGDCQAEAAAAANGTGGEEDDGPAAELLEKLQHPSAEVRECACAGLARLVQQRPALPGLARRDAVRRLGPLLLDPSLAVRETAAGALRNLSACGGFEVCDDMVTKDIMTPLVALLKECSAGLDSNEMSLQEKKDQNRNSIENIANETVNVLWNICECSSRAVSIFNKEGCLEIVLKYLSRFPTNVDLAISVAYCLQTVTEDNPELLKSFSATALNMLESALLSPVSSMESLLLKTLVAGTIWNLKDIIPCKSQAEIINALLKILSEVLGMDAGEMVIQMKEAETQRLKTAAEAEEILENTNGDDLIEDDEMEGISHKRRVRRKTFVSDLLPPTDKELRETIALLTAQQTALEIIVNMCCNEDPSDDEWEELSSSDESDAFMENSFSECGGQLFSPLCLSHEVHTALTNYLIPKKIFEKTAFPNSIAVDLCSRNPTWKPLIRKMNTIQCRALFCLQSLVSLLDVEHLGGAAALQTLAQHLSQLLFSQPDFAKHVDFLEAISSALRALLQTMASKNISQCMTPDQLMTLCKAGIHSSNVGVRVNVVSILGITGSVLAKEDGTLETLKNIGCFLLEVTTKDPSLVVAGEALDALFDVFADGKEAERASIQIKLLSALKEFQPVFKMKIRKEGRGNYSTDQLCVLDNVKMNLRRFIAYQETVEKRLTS

B1: TMEL1038 (antibody, V domains shown)
VH: QVQLVQSGAEVKKPGASVKVSCQASGYTFTGYYIHWVRQAPGQGLEWMGWINPNSGGTNYAQKFQGRVTMTRDTSISTAHMELGRLRSDDTAVYYCATPPSRYGGNYYADYWGQGTLVTVSS
VL: ASALTQPASVSGSPGQSITISCTGTSSDVGGYNYVSWYQQHPGKAPQLMIFDVSNRPSGVSNRFSGSKSGDTASLTISGLQAEDEADYYCSSYTSSSTWVFGGGTKLTVLG
notes: detected with anti-human IgG Fc
Q: Does B1 bind [1]?
A: binds

B2: TMEL1040 (antibody, V domains shown)
VH: EVQLVQSGAEVKKPGESLKISCKGSGYSFTTYWIAWVRQMPGKGLEWMGIIYPADSDTRYSPSFQGQVTMSADQSINTAYLQWSSLKASDTAMYYCARRGREFDYWGQGTLLTVSS
VL: QSALTQPASVSGSPGQSITISCTGTSSDVGSYNLVSWYQQHPGKAPKLMIYEGSKRPSGVSNRFSGSKSGNTASLTISGLQAEDEADYYCCSYAGSSTPWVFGGGTKLTVL
notes: as for B1
Q: Does B2 bind [2]?
A: binds

B3: TMEL1041 (antibody, V domains shown)
VH: EVQLLESGGGLVQPGGSLRLSCAASGFTFRIYAMSWVRQAPGKGLEWVSAISYSGNTTYYADSVKGRFTISRDNSKNTLYLQINNLRAEDTAIYYCAIQEKRELQLRRELDNYWGQGTLVTVSS
VL: PYELTQPPSVSLSPGQTARITCSGDALPKKYAYWYQQKSGQAPVLVIYEDSKRPSGIPERFSGSSSGTTATLTISGAQVDDEGDYYCYSPDSSGNVWVFGGGTKLTVLG
notes: as for B1
Q: Does B3 bind [3]?
A: binds

Q: Does B3 bind [4]?
A: binds

B4: TMES1002 (antibody, V domains shown)
VH: QVQVVESGGGLVKPGGSLRLSCAVSGLDFRDYYVNWIRQAPGKGLEWLSYITSPGGHTSYSDSVKGRFTISRDNAKNSVYLQMDSLTVEDTAVYFCAIKEGYGLSDWGQGTLVTVSS
VL: EIVLTQSPVTLSLSPGERATLSCRASQSVSSSYIAWYQQKPGQAPRLLIYGASTRATGIPDRFSGSGSGTDFTLTISRLEPEDCAVFYCQQYGSSHYTFGQGTKLEIKR
notes: as for B1
Q: Does B4 bind (BTB domain containing 8)?
A: binds

Q: Does B4 bind [5]?
A: binds

B5: TMES1004 (antibody, V domains shown)
VH: QVQLVQSGAEVKKPGASVKISCKASGYTFTSHAIHWVRQAPGQTFEWLGWINPVNGVTKYSQTFQDRVTIVRDKSATTTYMDLSGLTFEDTAMYYCARVLDFYGSSVLDYWGQGTLVTVSS
VL: QSALTQPASVSGSPGQSITISCTGTSSDIGTYNLVSWYQQRPGKAPKLIIYDVIKRPSGISDRFSGSKSDNMASLTISGLQAEDEAHYYCCSYRSSTAPVVFGGGTKVTVL
Q: Does B5 bind [6]?
A: binds

B6: TOVA1002 (antibody, V domains shown)
VH: QVQLVESGGGVVQPGRSLRLSCAASGFTFSNFAMHWVRQAPGKGLEWVVVISSDGSNKNYADSVKGRFTISRDNSKNTLYLQMNSLRAEDTAVYYCARDLGVGSTTYWGQGTLVTVSS
VL: SYVLTQPPSVSVAPGQTARITCGGNNIGSKSVHWYQQKPGQAPVLVVYDDSDRPSGIPERFSGSNSGNTATLTISRVEAGDEADYYCQVWDGYSDPLVFGGGTKLTVLG
Q: Does B6 bind [7]?
A: binds

B7: TOVA1003 (antibody)
VH: GEQLLESGGGLVQPGGSLRLSCAASGFTFSHYAMTWVRQAPGKGLEWVSGVSGSGFTTYYADSVKGRFTISRDNAQNTLYLHMNSLRAEDTAIYYCVKDLEVSIGHNFDFWGQGTLVTVSSASTKGPSVFPLAPSSKSTSGGTAALGCLVKDYFPEPVTVSWNSGALTSGVHTFPAVLQSSGLYSLSSVVTVPSSSLGTQTYICNVNHKPSNTKVDKRV
VL: EVQMTQSPSSLSASVGDRVTITCRASQHIAGRLNWYQQKPGKAPKLLIHSASSVQREVPSRFGGSGFGTDFTLTIYSLQAEDFATYFCQQSYYTPPTFAGGTRVDLKRTVAAPSVFIFPPSDEQLKSGTASVVCLLNNFYPREAKVQWKVDNALQSGNSQESVTEQDSKDSTYSLSSTLTLSKADYEKHKVYACEVTHQGLSSPVTKSFNRGEC
Q: Does B7 bind (Deoxyhypusine synthase)?
A: binds

B8: TOVA1004 (antibody, V domains shown)
VH: EVQLVESGGGLVKPGGSLRLSCAASGFTFSSYSMNWVRQAPGKGLEWVSSISSSSSYIYYADSVKGRFTISRDNAKNSLYLQMNSLRAEDTAVYYCARDRGVVVVAATPYYYGMDVWGQGTTVTVSS
VL: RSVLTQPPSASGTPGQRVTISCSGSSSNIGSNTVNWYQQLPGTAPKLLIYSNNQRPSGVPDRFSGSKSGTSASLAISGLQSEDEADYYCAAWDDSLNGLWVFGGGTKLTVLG
Q: Does B8 bind [8]?
A: binds
